Reference: publication doi:10.1101/2020.01.30.926501 (bioRxiv, 2020)

B1: Kif5b-GFP (domain or fragment, human, UniProt P33176 1-905, looked up)
chain: MADLAECNIKVMCRFRPLNESEVNRGDKYIAKFQGEDTVVIASKPYAFDRVFQSSTSQEQVYNDCAKKIVKDVLEGYNGTIFAYGQTSSGKTHTMEGKLHDPEGMGIIPRIVQDIFNYIYSMDENLEFHIKVSYFEIYLDKIRDLLDVSKTNLSVHEDKNRVPYVKGCTERFVCSPDEVMDTIDEGKSNRHVAVTNMNEHSSRSHSIFLINVKQENTQTEQKLSGKLYLVDLAGSEKVSKTGAEGAVLDEAKNINKSLSALGNVISALAEGSTYVPYRDSKMTRILQDSLGGNCRTTIVICCSPSSYNESETKSTLLFGQRAKTIKNTVCVNVELTAEQWKKKYEKEKEKNKILRNTIQWLENELNRWRNGETVPIDEQFDKEKANLEAFTVDKDITLTNDKPATAIGVIGNFTDAERRKCEEEIAKLYKQLDDKDEEINQQSQLVEKLKTQMLDQEELLASTRRDQDNMQAELNRLQAENDASKEEVKEVLQALEELAVNYDQKSQEVEDKTKEYELLSDELNQKSATLASIDAELQKLKEMTNHQKKRAAEMMASLLKDLAEIGIAVGNNDVKQPEGTGMIDEEFTVARLYISKMKSEVKTMVKRCKQLESTQTESNKKMEENEKELAACQLRISQHEAKIKSLTEYLQNVEQKKRQLEESVDALSEELVQLRAQEKVHEMEKEHLNKVQTANEVKQAVEQQIQSHRETHQKQISSLRDEVEAKAKLITDLQDQNQKMMLEQERLRVEHEKLKATDQEKSRKLHELTVMQDRREQARQDLKGLEETVAKELQTLHNLRKLFVQDLATRVKKSAEIDSDDTGGSAAQKQKISFLENNLEQLTKVHKQLVRDNADLRCELPKLEKRLRATAERVKALESALKEAKENASRDRKRYQQEVDRIKEA
B2: Kif14(768)-eGFP (domain or fragment, human, UniProt Q15058 1-768, looked up)
chain: MSLHSTHNRNNSGDILDIPSSQNSSSLNALTHSSRLKLHLKSDMSECENDDPLLRSAGKVRDINRTYVISASRKTADMPLTPNPVGRLALQRRTTRNKESSLLVSELEDTTEKTAETRLTLQRRAKTDSAEKWKTAEIDSVKMTLNVGGETENNGVSKESRTNVRIVNNAKNSFVASSVPLDEDPQVIEMMADKKYKETFSAPSRANENVALKYSSNRPPIASLSQTEVVRSGHLTTKPTQSKLDIKVLGTGNLYHRSIGKEIAKTSNKFGSLEKRTPTKCTTEHKLTTKCSLPQLKSPAPSILKNRMSNLQVKQRPKSSFLANKQERSAENTILPEEETVVQNTSAGKDPLKVENSQVTVAVRVRPFTKREKIEKASQVVFMSGKEITVEHPDTKQVYNFIYDVSFWSFDECHPHYASQTTVYEKLAAPLLERAFEGFNTCLFAYGQTGSGKSYTMMGFSEEPGIIPRFCEDLFSQVARKQTQEVSYHIEMSFFEVYNEKIHDLLVCKDENGQRKQPLRVREHPVYGPYVEALSMNIVSSYADIQSWLELGNKQRATAATGMNDKSSRSHSVFTLVMTQTKTEFVEGEEHDHRITSRINLIDLAGSERCSTAHTNGDRLKEGVSINKSLLTLGKVISALSEQANQRSVFIPYRESVLTWLLKESLGGNSKTAMIATISPAASNIEETLSTLRYANQARLIVNIAKVNEDMNAKLIRELKAEIAKLKAAQRNSRNIDPERYRLCRQEITSLRMKLHQQERDMAEMQRV

Target: the molecule itself
Assay: single-molecule GFP fluorescence intensity

Protein	stoichiometry N
B1	2
B2	2
